Test results as given in patent US20240165282A1, “CONFORMATIONAL CONSTRAINED SOMATOSTATIN RECEPTOR 3 PEPTIDE LIGANDS AND THEIR CONJUGATES AND USES THEREOF” (STARGET PHARMA LTD., priority 2021, published 2024).
*1 amine or outer side, *2 acyl side, *3 side chain or, on linkers, in order; H or OH if unused. Bridges are numbered along the chain shown (N, C = ends). Where no end group is shown, it is not given here. [ ]: non-standard residue; d: D form. The star is where a group is joined. DOTA = O=C(O)CN1CCN(CC(=O)O)CCN(CC(=O)*)CCN(CC(=O)O)CC1; N(2-mercaptoethyl)Gly = O=C(CN(CCS[*:3])[*:1])[*:2]; 4Amb = NCc1ccc(C(=O)O)cc1; Orn = NCCC[C@H](N)C(=O)O; NTEG = not defined here; Aoc = NCCCCCCCC(=O)O; GABA = NCCCC(=O)O

Legend:
Assay in all cases: 125I-Tyr11-SRIF-14 displacement
[1] = biological target: human cloned somatostatin receptor 3 (human) (UniProt P32745)
Sequence of human cloned somatostatin receptor 3 (human) (P32745 whole entry): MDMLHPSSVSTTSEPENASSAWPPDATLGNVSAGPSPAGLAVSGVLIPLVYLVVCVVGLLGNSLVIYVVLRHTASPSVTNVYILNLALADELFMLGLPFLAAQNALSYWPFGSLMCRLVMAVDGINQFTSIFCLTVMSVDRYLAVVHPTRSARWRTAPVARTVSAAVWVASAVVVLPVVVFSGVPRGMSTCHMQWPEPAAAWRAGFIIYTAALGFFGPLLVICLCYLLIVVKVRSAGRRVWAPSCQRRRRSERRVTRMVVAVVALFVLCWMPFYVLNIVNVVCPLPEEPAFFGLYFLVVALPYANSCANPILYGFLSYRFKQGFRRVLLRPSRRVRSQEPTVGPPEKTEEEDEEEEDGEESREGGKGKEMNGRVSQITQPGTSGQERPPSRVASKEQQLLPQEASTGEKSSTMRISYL

[2] = biological target: human cloned somatostatin receptor 1 (human) (UniProt P30872)
Sequence of human cloned somatostatin receptor 1 (human) (P30872 whole entry): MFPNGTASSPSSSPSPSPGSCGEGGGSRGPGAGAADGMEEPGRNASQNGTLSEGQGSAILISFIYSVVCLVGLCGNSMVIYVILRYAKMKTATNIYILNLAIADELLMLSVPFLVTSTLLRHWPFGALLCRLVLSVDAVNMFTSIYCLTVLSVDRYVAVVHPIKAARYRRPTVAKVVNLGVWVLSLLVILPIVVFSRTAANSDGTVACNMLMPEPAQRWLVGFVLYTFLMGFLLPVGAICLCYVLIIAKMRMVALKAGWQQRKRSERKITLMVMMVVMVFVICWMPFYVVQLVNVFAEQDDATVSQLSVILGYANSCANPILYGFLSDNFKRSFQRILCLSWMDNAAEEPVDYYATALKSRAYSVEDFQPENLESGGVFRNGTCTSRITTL

[3] = biological target: human cloned somatostatin receptor 2 (human) (UniProt P30874)
Sequence of human cloned somatostatin receptor 2 (human) (P30874 whole entry): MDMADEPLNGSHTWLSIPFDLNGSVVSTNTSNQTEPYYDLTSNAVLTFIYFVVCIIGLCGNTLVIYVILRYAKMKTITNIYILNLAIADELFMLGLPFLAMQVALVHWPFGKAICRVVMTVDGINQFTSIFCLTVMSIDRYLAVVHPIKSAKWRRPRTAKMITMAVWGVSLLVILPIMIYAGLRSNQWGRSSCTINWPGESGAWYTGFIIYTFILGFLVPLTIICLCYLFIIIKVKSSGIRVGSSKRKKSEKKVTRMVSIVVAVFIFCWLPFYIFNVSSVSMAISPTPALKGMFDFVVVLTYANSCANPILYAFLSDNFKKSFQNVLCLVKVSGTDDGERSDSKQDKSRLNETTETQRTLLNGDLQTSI

[4] = biological target: human cloned somatostatin receptor 5 (human) (UniProt P35346)
Sequence of human cloned somatostatin receptor 5 (human) (P35346 whole entry): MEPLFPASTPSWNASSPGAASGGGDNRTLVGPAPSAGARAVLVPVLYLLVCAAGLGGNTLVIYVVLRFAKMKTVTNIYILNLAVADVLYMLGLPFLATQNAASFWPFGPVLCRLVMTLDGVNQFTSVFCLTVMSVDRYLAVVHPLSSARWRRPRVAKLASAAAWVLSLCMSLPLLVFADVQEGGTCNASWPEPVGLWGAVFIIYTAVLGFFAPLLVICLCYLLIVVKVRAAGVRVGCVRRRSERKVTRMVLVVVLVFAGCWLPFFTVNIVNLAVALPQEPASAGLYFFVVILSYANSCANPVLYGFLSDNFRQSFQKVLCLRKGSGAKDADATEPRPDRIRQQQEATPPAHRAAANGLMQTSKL

[5] = biological target: human cloned somatostatin receptor 4 (human) (UniProt P31391)
Sequence of human cloned somatostatin receptor 4 (human) (P31391 whole entry): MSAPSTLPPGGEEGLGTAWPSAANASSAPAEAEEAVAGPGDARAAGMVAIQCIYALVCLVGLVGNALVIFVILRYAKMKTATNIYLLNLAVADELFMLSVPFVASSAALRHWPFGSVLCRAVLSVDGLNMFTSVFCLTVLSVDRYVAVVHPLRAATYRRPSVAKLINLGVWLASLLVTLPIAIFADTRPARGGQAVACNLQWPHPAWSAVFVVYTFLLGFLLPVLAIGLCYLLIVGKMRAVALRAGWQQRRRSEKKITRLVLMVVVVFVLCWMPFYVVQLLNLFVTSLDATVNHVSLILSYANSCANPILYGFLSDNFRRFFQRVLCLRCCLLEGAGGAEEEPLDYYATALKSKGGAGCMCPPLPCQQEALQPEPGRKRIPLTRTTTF

Binder	% displacement at 1 nM [1] [%]	% displacement at 10 nM [1] [%]	IC50 [2] [nM]	Ki [2] [nM]	IC50 [3] [nM]	Ki [3] [nM]	IC50 [1] [nM]	IC50 [4] [nM]	Ki [4] [nM]	% displacement at 1 nM [2] [%]	% displacement at 10 nM [2] [%]	% displacement at 1 nM [3] [%]	% displacement at 10 nM [3] [%]	% displacement at 1 nM [5] [%]	% displacement at 10 nM [5] [%]	% displacement at 1 nM [4] [%]	% displacement at 10 nM [4] [%]	Ki [1] [nM]
{DOTA}-[dF]KCY[dW]KTF[N(2-mercaptoethyl)Gly]-NH2 (disulfide 3-9; SMILES C[C@@H](O)[C@@H]1NC(=O)[C@H](CCCCN)NC(=O)[C@@H](Cc2c[nH]c3ccccc23)NC(=O)[C@H](Cc2ccc(O)cc2)NC(=O)[C@@H](NC(=O)[C@H](CCCCN)NC(=O)[C@@H](Cc2ccccc2)NC(=O)CN2CCN(CC(=O)O)CCN(CC(=O)O)CCN(CC(=O)O)CC2)CSSCCN(CC(N)=O)C(=O)[C@H](Cc2ccccc2)NC1=O) [SEQ ID NO: 24]	66	88																
{DOTA}-[dF]RCF[dW]KTF[N(2-mercaptoethyl)Gly]-NH2 (disulfide 3-9; also: Lu complex of DOTA) [SEQ ID NO: 6]			310	260	210	110	0.9	86	48									
{DOTA}-[dF][Orn]CF[dW]KTF[N(2-mercaptoethyl)Gly]-NH2 (disulfide 3-9) [SEQ ID NO: 21]	59	93								23	22	0	2	9	9	0	0	
{DOTA}-[dF]KCF[dW]KTF[NTEG]-NH2 (disulfide 3-9; reading uncertain; also: Ga chelated by DOTA) [SEQ ID NO: 10]	27	75					2.4											
{DOTA}-A[dF]RCF[dW]KTF[N(2-mercaptoethyl)Gly]-NH2 (disulfide 4-10; SMILES C[C@H](NC(=O)CN1CCN(CC(=O)O)CCN(CC(=O)O)CCN(CC(=O)O)CC1)C(=O)N[C@H](Cc1ccccc1)C(=O)N[C@@H](CCCNC(=N)N)C(=O)N[C@H]1CSSCCN(CC(N)=O)C(=O)[C@H](Cc2ccccc2)NC(=O)[C@H]([C@@H](C)O)NC(=O)[C@H](CCCCN)NC(=O)[C@@H](Cc2c[nH]c3ccccc23)NC(=O)[C@H](Cc2ccccc2)NC1=O) [SEQ ID NO: 12]	64	93								0	10	0	0	0	0	0	13	
{DOTA-Aoc}-[dF]RCF[dW]KTF[N(2-mercaptoethyl)Gly]-NH2 (disulfide 3-9) [SEQ ID NO: 15]	49	87								6	18	1	0	0	0	0	0	
H-[dF]KCF[dW]KTF[N(2-mercaptoethyl)Gly]-NH2 (disulfide 3-9; SMILES C[C@@H](O)[C@@H]1NC(=O)[C@H](CCCCN)NC(=O)[C@@H](Cc2c[nH]c3ccccc23)NC(=O)[C@H](Cc2ccccc2)NC(=O)[C@@H](NC(=O)[C@H](CCCCN)NC(=O)[C@H](N)Cc2ccccc2)CSSCCN(CC(N)=O)C(=O)[C@H](Cc2ccccc2)NC1=O) [SEQ ID NO: 2]							0.73											0.25
{DOTA}-[dF]KCF[dW]KTF[N(2-mercaptoethyl)Gly]-NH2 (disulfide 3-9; SMILES C[C@@H](O)[C@@H]1NC(=O)[C@H](CCCCN)NC(=O)[C@@H](Cc2c[nH]c3ccccc23)NC(=O)[C@H](Cc2ccccc2)NC(=O)[C@@H](NC(=O)[C@H](CCCCN)NC(=O)[C@@H](Cc2ccccc2)NC(=O)CN2CCN(CC(=O)O)CCN(CC(=O)O)CCN(CC(=O)O)CC2)CSSCCN(CC(N)=O)C(=O)[C@H](Cc2ccccc2)NC1=O) [SEQ ID NO: 9]	59	91					1			4	10	0	0	0	0	0	12	
{DOTA}-G[dF]RCF[dW]KTF[N(2-mercaptoethyl)Gly]-NH2 (disulfide 4-10; SMILES C[C@@H](O)[C@@H]1NC(=O)[C@H](CCCCN)NC(=O)[C@@H](Cc2c[nH]c3ccccc23)NC(=O)[C@H](Cc2ccccc2)NC(=O)[C@@H](NC(=O)[C@H](CCCNC(=N)N)NC(=O)[C@@H](Cc2ccccc2)NC(=O)CNC(=O)CN2CCN(CC(=O)O)CCN(CC(=O)O)CCN(CC(=O)O)CC2)CSSCCN(CC(N)=O)C(=O)[C@H](Cc2ccccc2)NC1=O) [SEQ ID NO: 11]	47	88								2	19	0	0	0	0	0	0	
{DOTA}-[dF]RCF[dW]KTF[N(2-mercaptoethyl)Gly]-NH2 (disulfide 3-9; also: Cu complex of DOTA) [SEQ ID NO: 5]			780	640	420	220	0.9	150	82									
{DOTA-4Amb}-[dF]RCF[dW]KTF[N(2-mercaptoethyl)Gly]-NH2 (disulfide 3-9) [SEQ ID NO: 18]	49	85								0	4	0	0	0	8	0	0	
{DOTA-GABA}-[dF]RCF[dW]KTF[N(2-mercaptoethyl)Gly]-NH2 (disulfide 3-9; also: Ga complex of DOTA) [SEQ ID NO: 8]	61	88								0	10	0	10	5	4	0	15	
H-[dF]RCF[dW]KTF[N(2-mercaptoethyl)Gly]-NH2 (disulfide 3-9; SMILES C[C@@H](O)[C@@H]1NC(=O)[C@H](CCCCN)NC(=O)[C@@H](Cc2c[nH]c3ccccc23)NC(=O)[C@H](Cc2ccccc2)NC(=O)[C@@H](NC(=O)[C@H](CCCNC(=N)N)NC(=O)[C@H](N)Cc2ccccc2)CSSCCN(CC(N)=O)C(=O)[C@H](Cc2ccccc2)NC1=O) [SEQ ID NO: 1]			180	150	390	320	0.43	310	170									0.15
K[dF]RCF[dW]KTF[N(2-mercaptoethyl)Gly]-NH2 (disulfide 4-10; not fully specified (residue 1, N-terminus); printed as (DOTA)2-Lys1-D-Phe2-Arg3-Cys4-Phe5-D-Trp6-Lys7-Thr8-Phe9-NTEG10-NH2 (cyclo 3-9); also: (DOTA)2 on Lys1, sites not given here) [SEQ ID NO: 16]	47	88								0	5	6	2	0	0	0	3	
{DOTA}-F[dF]RCF[dW]KTF[N(2-mercaptoethyl)Gly]-NH2 (disulfide 4-10; SMILES C[C@@H](O)[C@@H]1NC(=O)[C@H](CCCCN)NC(=O)[C@@H](Cc2c[nH]c3ccccc23)NC(=O)[C@H](Cc2ccccc2)NC(=O)[C@@H](NC(=O)[C@H](CCCNC(=N)N)NC(=O)[C@@H](Cc2ccccc2)NC(=O)[C@H](Cc2ccccc2)NC(=O)CN2CCN(CC(=O)O)CCN(CC(=O)O)CCN(CC(=O)O)CC2)CSSCCN(CC(N)=O)C(=O)[C@H](Cc2ccccc2)NC1=O) [SEQ ID NO: 20]	66	95								8	14	0	2	0	0	0	0	
